Reference: patent US9289490B2, “Combinations and uses thereof” (MORPHOSYS AG, priority 2010, dated 2016)
“And” between values parts separate entries of the source, which are not always exact repeats. Equal values may be shown once. Read-outs that look alike come from different tables or passages of the source. Marks after values point to notes of the source that are not given here.

Experiments:
[1] = tested on: AMO-1 cells; assay: ADCC with human PBMCs, flow cytometry (CalceinAM/PI); format: cell-based
Procedure: For Tables 3b-c, “Theoretical Combination” represents the addition of the values of MOR202 alone and the values of LEN alone. The normalized data of Table 3b is calculated as follows. Therefore, the specific killing values of Table 3b are calculated by subtracting the values of the controls. Then the specific killing values are compared to the MOR202 group, which is set as 1.
The constant m determines the shape of the dose-effect curve. We used Excel Fit software to carry out a linear regression calculation to estimate the parameters m and D50.
The CI-isobol method provides a quantitative assessment of synergism between drugs. A combination index (CI) is estimated from dose-effect data of single and combined drug treatments. […] Formally, the combination index (CI) of a combined drug treatment is defined as CI=D1/Dx1+D2/Dx2
The data is analysed in the following way: Antagonistic(AB)/C<(A/C)×(B/C) Additive(AB)/C=(A/C)×(B/C) Synergistic(AB)/C>(A/C)×(B/C) where A is the treatment with LEN alone; B is the treatment with MOR202 alone; C is response to the treatment vehicle; AB is combination of treatments A and B.

[2] = tested on: NCI-H929 human multiple myeloma cells; assay: NCI-H929 bone lysis SCID mouse MM model, MOR202 and LEN (MicroCT); format: in vivo, SCID mice; design: Trabecular Bone Volume (Tb · BV), individual mouse / Trabecular Bone Volume (Tb · BV), Mean: unit not given here
Procedure: 63 SCID mice were inoculated on Day (−7) orthotopically into the right tibia with 2.5×10^6 NCI-H929 MM cells (in 5 μL) in order to induce bone lysis. Lenalidomide (Groups A and D) and Vehicle Control (Group C) treatments started on Day (−1). MOR202 treatments (Groups B and D) started on Day 0. Treatment continued for 6 weeks.
MicroCT Scan was used to assess bone lysis and included […] analysis comprising Total Bone Volume (TBV), Trabecular Bone Volume (Tb.BV), Trabecular Pattern Factor (Tb.Pf) and Structure Model Index (SMI). Table 10 defines each of these parameters.

[3] = tested on: RAMOS cells; assay: RAMOS non-Hodgkin tumor SCID mouse survival model, MOR202 and lenalidomide; format: in vivo, SCID mice
Procedure: Sixty-eight female SCID mice were pre-treated with Cyclophosphamide (75 mg/kg, i.p., twice daily) for two days prior to RAMOS cell inoculation (Day −5 and −4). On the day of inoculation (Day −3), all mice were inoculated with 1×10^6 RAMOS cells each intravenously into the tail vein. Sixty-four of the mice were randomised by body weight into eight groups of eight.
The study continued for 98 days and the measured endpoint was survival.

[4] = tested on: NCI-H929 MM cells; assay: NCI-H929 bone lysis SCID mouse model, MOR202 and BOR (MicroCT); format: in vivo, SCID mice; design: Trabecular Bone Volume (Tb · BV), individual mouse / Trabecular Bone Volume (Tb · BV), Average: unit not given here
Text: 63 SCID mice were inoculated on Day (−7) intra-tibially with 2.5×10^6 NCI-H929 MM cells in order to induce bone lysis. Bortezomib (Groups A and AB) and Vehicle Control (Group C) treatments started on Day (−1). MOR202 treatments (Groups B and AB) started on Day 0. Treatment continued for 6 weeks.
MicroCT Scan was used to assess bone lysis and included a 3-dimensional analysis comprising Total Bone Volume (TBV), Trabecular Bone Volume (Tb.BV), Trabecular Pattern Factor (Tb.Pf) and Structure Model Index (SMI). Table 10 above defines each of these parameters.

[5] = tested on: RAMOS cells; details: BOR 0.6 mg/kg i.p., MOR202 1 mg/kg i.v.
Procedure: Fifty-five female SCID mice were pre-treated with Cyclophosphamide (75 mg/kg, i.p., twice daily) for two days prior to RAMOS cell inoculation (Day −5 and −4). On the day of inoculation (Day −3), all fifty-five mice were inoculated with 1×10^6 RAMOS cells each (in 100 μL) intravenously into the tail vein. Forty-eight of the mice were randomised by body weight into six groups of eight.

[6] = tested on: NCI-H929 cells; assay: ADCC with human PBMCs, flow cytometry (CalceinAM/PI); details: LEN 5 μM
Procedure: PBMC's were isolated by density gradient centrifugation of freshly isolated human blood. Isolated blood from different donors were layered on a defined volume of Biocoll (Biochrome AG; CAT No.:L6115; LOT No.:1050T) in a Falcon tube and centrifuged at 380 g. The PBMCs were isolated and supplemented with RPMI medium.
Cell suspensions were further incubated for 4 h at 37° C. To detect dead AMO-1 cells, cell suspensions were challenged with propidium iodide (PI) and subsequently analyzed in flow cytometry. Target cells were separated via gating of CalceinAM positive cell populations, and cells killed via ADCC were quantified.
Single and combination doses of 5 μM LEN and 15 μg/ml of MOR03207 and 0.2 or 0.07 μg/ml MOR202 were used.
Single and combination doses of 5 μM LEN and 15 μg/ml of MOR03207 and 0.2* or 0.07 μg/m MOR202 were used.

[7] = LEN 50 mg/kg p.o. once daily, MOR202 3 mg/kg i.p. 3 times weekly, 6 weeks, lower = less bone lysis, listed as MOR03087
[8] = group mean of 10 mice, LEN 50 mg/kg p.o., MOR202 3 mg/kg i.p., 6 weeks
[9] = Bortezomib 0.6 mg/kg i.p. twice per week, MOR202 3 mg/kg i.p. three times per week, 6 weeks, lower = less bone lysis
[10] = group average of 10 mice, Bortezomib 0.6 mg/kg i.p., MOR202 3 mg/kg i.p., 6 weeks

B1: MOR202: anti-CD38 antibody whose amino acid sequence is provided in FIG. 11; IgG1 (antibody, V domains shown)
VH: QVQLVESGGGLVQPGGSLRLSCAASGFTFSSYYMNWVRQAPGKGLEWVSGISGDPSNTYYADSVKGRFTISRDNSKNTLYLQMNSLRAEDTAVYYCARDLPLVYTGFAYWGQGTLVTVSS
VL: DIELTQPPSVSVAPGQTARISCSGDNLRHYYVYWYQQKPGQAPVLVIYGDSKRPSGIPERFSGSNSGNTATLTISGTQAEDEADYYCQTYTGGASLVFGGGTKLTVLGQ
Normalized specific killing, MOR202 treatment group set as 1 (Table 3b) ([1]; PBMCs and AMO-1 cells treated with LEN, LEN 10 μM, MOR202 and MOR03207 15 μg/ml, controls subtracted, Exp. 1-3): 1.0 | Normalized specific killing, theoretical combination set as 1 (Table 3c) ([1]; PBMCs and AMO-1 cells treated with LEN, MOR202 0.42 μg/ml, LEN 5 μM, Experiment 1-3): 0.9 and 0.6 | Normalized specific killing, theoretical combination set as 1, AVERAGE (Table 3c) ([1]; PBMCs and AMO-1 cells treated with LEN, MOR202 0.42 μg/ml, LEN 5 μM, average of 3 experiments): 0.8 | Normalized specific killing, MOR202 treatment group set as 1 (Table 4b) ([1]; only effector cells treated with LEN, LEN 10 μM, MOR202 and MOR03207 15 μg/ml, Exp. 1-3): 1.0 | Normalized specific killing, theoretical combination set as 1 (Table 4c) ([1]; only effector cells treated with LEN, MOR202 0.42 μg/ml, LEN 5 μM, Experiment 1-3): 0.8 and 1.2 and 0.7 | Normalized specific killing, theoretical combination set as 1, AVERAGE (Table 4c) ([1]; only effector cells treated with LEN, MOR202 0.42 μg/ml, LEN 5 μM, average of 3 experiments): 0.9 | Structure Model Index (SMI), individual mouse [2, 7]: 2.386 and 1.818 and 2.423 and 2.450 and 1.860 and 2.461 and 2.558 and 2.247 and 2.318 and 2.275 | Trabecular Pattern Factor (Tb · Pf), individual mouse [2, 7]: 27.049 mm^−1 and 15.631 mm^−1 and 27.631 mm^−1 and 27.523 mm^−1 and 17.887 mm^−1 and 21.405 mm^−1 and 26.345 mm^−1 and 20.327 mm^−1 and 25.843 mm^−1 and 22.402 mm^−1 | Structure Model Index (SMI), Mean [2, 8]: 2.28 | Total Bone Volume (TBV), Mean [2, 8]: 2.467 mm^3 | Trabecular Bone Volume (Tb · BV), Mean [2, 8]: 0.323 | Trabecular Pattern Factor (Tb · Pf), Mean [2, 8]: 23.204 mm^−1 | Structure Model Index (SMI), Mean ([2]; group mean of 10 mice, LEN 50 mg/kg p.o., MOR202 3 mg/kg i.p., 6 weeks, listed as MOR03087): 2.280 | Reduction of bone lysis compared to vehicle control ([2]; non-inoculated tibia = 0%, vehicle = 100% bone lysis, MOR202 alone 12 mg/kg, LEN alone 50 mg/kg, combination 3 mg/kg MOR202 and 50 mg/kg LEN): up to 55% | Number of mice alive at study termination (day 98) ([3]; LEN 100 mg/kg (Table 14) p.o., MOR202 1 mg/kg i.v.): 0/8 | Day of death (post-inoculation) Mean ([3]; LEN 100 mg/kg (Table 14) p.o., MOR202 1 mg/kg i.v. twice weekly, study 98 days): 49.6 days | % ILS (based on median death day) ([3]; LEN 100 mg/kg (Table 14) p.o., MOR202 1 mg/kg i.v., vs vehicle control): 155% | Day of death (post-inoculation) Median ([3]; LEN 100 mg/kg (Table 14; Table 13: 50 mg/kg) p.o. once daily, MOR202 1 mg/kg i.v. twice weekly, study 98 days): 51 days | Structure Model Index (SMI), individual mouse [4, 9]: 2.546 and 2.079 and 2.296 and 2.429 and 1.871 and 2.193 and 2.368 (2×) and 2.436 and 2.511 | Trabecular Pattern Factor (Tb · Pf), individual mouse [4, 9]: 27.363 mm^−1 and 19.479 mm^−1 and 21.858 mm^−1 and 23.814 mm^−1 and 16.347 mm^−1 and 19.748 mm^−1 and 25.212 mm^−1 and 21.276 mm^−1 and 24.031 mm^−1 and 25.056 mm^−1 | Structure Model Index (SMI), Average [4, 10]: 2.31 | Total Bone Volume (TBV), Average [4, 10]: 1.988 mm^3 | Trabecular Bone Volume (Tb · BV), Average [4, 10]: 0.296 | Trabecular Pattern Factor (Tb · Pf), Average [4, 10]: 22.418 mm^−1 | Reduction of bone lysis compared to vehicle control ([4]; non-inoculated tibia = 0%, vehicle = 100% bone lysis, MOR202 alone 12 mg/kg, BOR alone 0.6 mg/kg, combination 3 mg/kg MOR202 and 0.6 mg/kg BOR): up to 55% | Number of mice alive at study termination (day 98) [5]: 0/8 | Day of death (post-inoculation) Mean ([5]; study 98 days): 43.6 days | Day of death (post-inoculation) Median ([5]; study 98 days): 43.5 days | % ILS (based on median death day) ([5]; vs vehicle control): 112% | % dead cells (raw data, Table 7a), Exp. 2 and 3 ([6]; PBMCs and NCI-H929 cells treated with LEN before MOR202, MOR202 0.07 μg/ml, MOR03207 15 μg/ml): 32.54 % dead cells and 43.08 % dead cells | % dead cells (raw data, Table 7a), Exp. 1 ([6]; PBMCs and NCI-H929 cells treated with LEN before MOR202, MOR202 0.2 μg/ml (*), MOR03207 15 μg/ml): 30.64* % dead cells | Normalized specific killing, fractional product combination set as 1 (Table 7b), Exp. 2 and 3 ([6]; PBMCs and NCI-H929 cells treated with LEN, MOR202 0.07 μg/ml): 0.45 and 0.58 | Normalized specific killing, fractional product combination set as 1 (Table 7b), Exp. 1 ([6]; PBMCs and NCI-H929 cells treated with LEN, MOR202 0.2 μg/ml (*)): 0.42* | Normalized specific killing, AVERAGE (Table 7b) ([6]; PBMCs and NCI-H929 cells treated with LEN, MOR202 0.2 or 0.07 μg/ml, average of 3 experiments): 0.48 | % dead cells (raw data, Table 8a), Exp. 2 and 3 ([6]; only effector cells treated with LEN before MOR202, MOR202 0.07 μg/ml, MOR03207 15 μg/ml): 53.74 % dead cells and 47.00 % dead cells | % dead cells (raw data, Table 8a), Exp. 1 ([6]; only effector cells treated with LEN before MOR202, MOR202 0.2 μg/ml (*), MOR03207 15 μg/ml): 26.60* % dead cells | Normalized specific killing, fractional product combination set as 1 (Table 8b), Exp. 2 and 3 ([6]; only effector cells treated with LEN, MOR202 0.07 μg/ml): 0.97 and 0.91 | Normalized specific killing, fractional product combination set as 1 (Table 8b), Exp. 1 ([6]; only effector cells treated with LEN, MOR202 0.2 μg/ml (*)): 1.09* | Normalized specific killing, AVERAGE (Table 8b) ([6]; only effector cells treated with LEN, MOR202 0.2 or 0.07 μg/ml, average of 3 experiments): 0.99
